Experimental data taken from US20240352134A1.

Legend:
human CCR8 (human) [1] = biological target: human CCR8 (human) (UniProt P51685); assay: binding affinity EC50, comparison of Table 12 (FACS on CCR8-expressing cells)
human CCR8 (human) [2] = biological target: human CCR8 (human) (UniProt P51685); assay: cell-based or functional assay

Chain of human CCR8 (human) (P51685 whole entry): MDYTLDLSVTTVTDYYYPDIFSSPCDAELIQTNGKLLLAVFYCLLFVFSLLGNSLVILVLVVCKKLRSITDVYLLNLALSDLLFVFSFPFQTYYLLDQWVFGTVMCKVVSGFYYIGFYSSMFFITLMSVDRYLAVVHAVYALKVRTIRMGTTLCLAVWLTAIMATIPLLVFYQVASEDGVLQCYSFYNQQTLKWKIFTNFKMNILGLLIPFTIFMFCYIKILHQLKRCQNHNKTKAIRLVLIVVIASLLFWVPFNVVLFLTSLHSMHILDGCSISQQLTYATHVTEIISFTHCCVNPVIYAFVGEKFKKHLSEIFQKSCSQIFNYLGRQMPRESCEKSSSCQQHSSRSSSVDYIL

Substance	EC50 (human CCR8 (human) [1])	Signal block Ca2+ (human CCR8 (human) [2])
S-531011 (antibody)	0.243 nM	
GS-1811 (antibody)	0.29 nM	4.34 nM
